Reference: article PMC3010076 (The Journal of Cell Biology, 2010)

B1: C-terminally TAP-tagged Myo1 with a deletion of the TD2 region (natural protein, S. cerevisiae, UniProt P08964 1-1928, looked up)
chain: MTGGQSCSSNMIVWIPDEKEVFVKGELMSTDINKNKFTGQEEQIGIVHPLDSTEVSNLVQVRISDVFPVNPSTFDKVENMSELTHLNEPSVLYNLEKRYDCDLIYTYSGLFLVAINPYHNLNLYSEDHINLYHNKHNRLSKSRLDENSHEKLPPHIFAIAEEAYENLLSEGKDQSILVTGESGAGKTENTKKILQYLASITSGSPSNIAPVSGSSIVESFEMKILQSNPILESFGNAQTVRNNNSSRFGKFIKIEFNEHGMINGAHIEWYLLEKSRIVHQNSKERNYHIFYQLLSGLDDSELKNLRLKSRNVKDYKILSNSNQDIIPGINDVENFKELLSALNIIGFSKDQIRWIFQVVAIILLIGNIEFVSDRAEQASFKNDVSAICSNLGVDEKDFQTAILRPRSKAGKEWVSQSKNSQQAKFILNALSRNLYERLFGYIVDMINKNLDHGSATLNYIGLLDIAGFEIFENNSFEQLCINYTNEKLQQFFNNHMFVLEQSEYLKENIQWDYIDYGKDLQLTIDLIESKGPPTGVLPLLDEEAVLPKSTDESFYSKLISTWDQNSSKFKRSRLKNGFILKHYAGDVEYTVEGWLSKNKDPLNDNLLSLLSSSQNDIISKLFQPEGEKSSSAGVEANISNQEVKKSARTSTFKTTSSRHREQQITLLNQLASTHPHFVRCIIPNNVKKVKTFNRRLILDQLRCNGVLEGIRLAREGYPNRIAFQEFFQRYRILYPENSTTTTFSSKLKASTKQNCEFLLTSLQLDTKVYKIGNTKLFFKAGVLADLEKQKDVKLNNIMIKLTATIRGYTVRKEITYHLQKLKKTRVIGNTFRLYNRLVKEDPWFNLFIRIKPLLTSSNDMTRTKKFNEQINKLKNDLQEMESKKKFLEEKNQKTVNELENTQDLLNQEKENLRKNESLLNRVKTSSETLQKQFDDLVSEKDEISREKLEVAQNLEEAHQKIQGLQETIREREATLEKLHSKNNELIKQISDLNCDISKEQSSQSLIKESKLKLENEIKRLKDVINSKEEEIKSFNDKLSSSEEDLDIKLVTLEKNCNIAMSRLQSLVTENSDLRSKNENFKKEKAALNNQLKNKESELLKMKEKIDNHKKELATFSKQRDDAVSEHGKITAELKETRIQLTEYKSNYQKIKEEYSNFQRETKEQEQKKRNSLVESLNDSKIKELEARLSQEISLNQYLNKRISGNSVETNISSTRRSTSYSDDVGDIIKNRDSISKYEEEIRYYKLENYKLQEILNESNGKLSQLTLDLRQSKSKEALLSEQLDRLQKDLESTERQKELLSSTIKQQKQQFENCMDDLQGNELRLREHIHALKQAEEDVKNMASIIEKLKTQNKQKEKLIWEREMERNDSDMQLQETLLELKRVQDVKKILSDDLAHLKERLSAVEDRSQYTDEINRLKEELNCSLKAETNLKKEFATLKYKLETSTNDSEAKISDLLKQLDHYTKVVEMLNNEKDAISLAEKELYQKYEALNTECESLKGKIVSLTKIKQELESDLNQKTDALQISNAALSSSTQKNKEITEKIKYLEETLQLQMEQNSRNGELVKTLQASCNGYKDKFDDEKQKNIDLYEENQTLQKLNTDLQLQLKNLHERLSDTTEKNAWLSKIHELENMVSLETDLKYEEMKKNKSLERAVEELQTKNSQQTDVIELANKNRSEFEEATLKYEAQISDLEKYISQQELEMKKSIRDNSSYRDKVQEMAQEIEFWKSRYESTMIGSKNIDSNNAQSKIFS
B2: MBP-Myo1-tail-TD2Δ (domain or fragment, S. cerevisiae, UniProt P08964 856-1928, looked up)
chain: SSNDMTRTKKFNEQINKLKNDLQEMESKKKFLEEKNQKTVNELENTQDLLNQEKENLRKNESLLNRVKTSSETLQKQFDDLVSEKDEISREKLEVAQNLEEAHQKIQGLQETIREREATLEKLHSKNNELIKQISDLNCDISKEQSSQSLIKESKLKLENEIKRLKDVINSKEEEIKSFNDKLSSSEEDLDIKLVTLEKNCNIAMSRLQSLVTENSDLRSKNENFKKEKAALNNQLKNKESELLKMKEKIDNHKKELATFSKQRDDAVSEHGKITAELKETRIQLTEYKSNYQKIKEEYSNFQRETKEQEQKKRNSLVESLNDSKIKELEARLSQEISLNQYLNKRISGNSVETNISSTRRSTSYSDDVGDIIKNRDSISKYEEEIRYYKLENYKLQEILNESNGKLSQLTLDLRQSKSKEALLSEQLDRLQKDLESTERQKELLSSTIKQQKQQFENCMDDLQGNELRLREHIHALKQAEEDVKNMASIIEKLKTQNKQKEKLIWEREMERNDSDMQLQETLLELKRVQDVKKILSDDLAHLKERLSAVEDRSQYTDEINRLKEELNCSLKAETNLKKEFATLKYKLETSTNDSEAKISDLLKQLDHYTKVVEMLNNEKDAISLAEKELYQKYEALNTECESLKGKIVSLTKIKQELESDLNQKTDALQISNAALSSSTQKNKEITEKIKYLEETLQLQMEQNSRNGELVKTLQASCNGYKDKFDDEKQKNIDLYEENQTLQKLNTDLQLQLKNLHERLSDTTEKNAWLSKIHELENMVSLETDLKYEEMKKNKSLERAVEELQTKNSQQTDVIELANKNRSEFEEATLKYEAQISDLEKYISQQELEMKKSIRDNSSYRDKVQEMAQEIEFWKSRYESTMIGSKNIDSNNAQSKIFS
B3: C-terminally TAP-tagged full-length Myo1 (natural protein, S. cerevisiae, UniProt P08964 1-1928, looked up)
chain: MTGGQSCSSNMIVWIPDEKEVFVKGELMSTDINKNKFTGQEEQIGIVHPLDSTEVSNLVQVRISDVFPVNPSTFDKVENMSELTHLNEPSVLYNLEKRYDCDLIYTYSGLFLVAINPYHNLNLYSEDHINLYHNKHNRLSKSRLDENSHEKLPPHIFAIAEEAYENLLSEGKDQSILVTGESGAGKTENTKKILQYLASITSGSPSNIAPVSGSSIVESFEMKILQSNPILESFGNAQTVRNNNSSRFGKFIKIEFNEHGMINGAHIEWYLLEKSRIVHQNSKERNYHIFYQLLSGLDDSELKNLRLKSRNVKDYKILSNSNQDIIPGINDVENFKELLSALNIIGFSKDQIRWIFQVVAIILLIGNIEFVSDRAEQASFKNDVSAICSNLGVDEKDFQTAILRPRSKAGKEWVSQSKNSQQAKFILNALSRNLYERLFGYIVDMINKNLDHGSATLNYIGLLDIAGFEIFENNSFEQLCINYTNEKLQQFFNNHMFVLEQSEYLKENIQWDYIDYGKDLQLTIDLIESKGPPTGVLPLLDEEAVLPKSTDESFYSKLISTWDQNSSKFKRSRLKNGFILKHYAGDVEYTVEGWLSKNKDPLNDNLLSLLSSSQNDIISKLFQPEGEKSSSAGVEANISNQEVKKSARTSTFKTTSSRHREQQITLLNQLASTHPHFVRCIIPNNVKKVKTFNRRLILDQLRCNGVLEGIRLAREGYPNRIAFQEFFQRYRILYPENSTTTTFSSKLKASTKQNCEFLLTSLQLDTKVYKIGNTKLFFKAGVLADLEKQKDVKLNNIMIKLTATIRGYTVRKEITYHLQKLKKTRVIGNTFRLYNRLVKEDPWFNLFIRIKPLLTSSNDMTRTKKFNEQINKLKNDLQEMESKKKFLEEKNQKTVNELENTQDLLNQEKENLRKNESLLNRVKTSSETLQKQFDDLVSEKDEISREKLEVAQNLEEAHQKIQGLQETIREREATLEKLHSKNNELIKQISDLNCDISKEQSSQSLIKESKLKLENEIKRLKDVINSKEEEIKSFNDKLSSSEEDLDIKLVTLEKNCNIAMSRLQSLVTENSDLRSKNENFKKEKAALNNQLKNKESELLKMKEKIDNHKKELATFSKQRDDAVSEHGKITAELKETRIQLTEYKSNYQKIKEEYSNFQRETKEQEQKKRNSLVESLNDSKIKELEARLSQEISLNQYLNKRISGNSVETNISSTRRSTSYSDDPLDKEDIIKKYYDLQLAFTEITRNLENEIEEKKNLISRLRFTETRLASSSFEDQKIKAQMKKLKKLIQDMDPSIPLDSILNEPLDNCPDKESDINKLMLEVDYLKRQLDIETRAHYDAENAISALHSKFRKIQGESSLSSSDIYKLKFEASEERVKSLEDKLKTMPLRDRTNLPVGDIIKNRDSISKYEEEIRYYKLENYKLQEILNESNGKLSQLTLDLRQSKSKEALLSEQLDRLQKDLESTERQKELLSSTIKQQKQQFENCMDDLQGNELRLREHIHALKQAEEDVKNMASIIEKLKTQNKQKEKLIWEREMERNDSDMQLQETLLELKRVQDVKKILSDDLAHLKERLSAVEDRSQYTDEINRLKEELNCSLKAETNLKKEFATLKYKLETSTNDSEAKISDLLKQLDHYTKVVEMLNNEKDAISLAEKELYQKYEALNTECESLKGKIVSLTKIKQELESDLNQKTDALQISNAALSSSTQKNKEITEKIKYLEETLQLQMEQNSRNGELVKTLQASCNGYKDKFDDEKQKNIDLYEENQTLQKLNTDLQLQLKNLHERLSDTTEKNAWLSKIHELENMVSLETDLKYEEMKKNKSLERAVEELQTKNSQQTDVIELANKNRSEFEEATLKYEAQISDLEKYISQQELEMKKSIRDNSSYRDKVQEMAQEIEFWKSRYESTMIGSKNIDSNNAQSKIFS

Target: the molecule itself
Assay: rotary-shadowing EM

Protein | stoichiometry N
B1 | 2
B2 | 2
B3 | 2
